According to PMC8497992:

How the values were obtained:
Assay in all cases: fluorescence polarization
Conditions in all cases: 50 mM Tris-HCl pH 8.0, 50 mM KCl, 1 mM EDTA; 50 nM labeled oligonucleotide; temperature not stated
[1] = molecular target: SAMHD1 HD domain R366H R366H (UniProt Q9Y3Z3)
SAMHD1 HD domain WT = SAMHD1 HD domain WT (UniProt Q9Y3Z3)
[2] = molecular target: SAMHD1 HD domain R366C R366C (UniProt Q9Y3Z3)
SAMHD1 HD domain R366C R366C, sequence (Q9Y3Z3 114-626 R366C): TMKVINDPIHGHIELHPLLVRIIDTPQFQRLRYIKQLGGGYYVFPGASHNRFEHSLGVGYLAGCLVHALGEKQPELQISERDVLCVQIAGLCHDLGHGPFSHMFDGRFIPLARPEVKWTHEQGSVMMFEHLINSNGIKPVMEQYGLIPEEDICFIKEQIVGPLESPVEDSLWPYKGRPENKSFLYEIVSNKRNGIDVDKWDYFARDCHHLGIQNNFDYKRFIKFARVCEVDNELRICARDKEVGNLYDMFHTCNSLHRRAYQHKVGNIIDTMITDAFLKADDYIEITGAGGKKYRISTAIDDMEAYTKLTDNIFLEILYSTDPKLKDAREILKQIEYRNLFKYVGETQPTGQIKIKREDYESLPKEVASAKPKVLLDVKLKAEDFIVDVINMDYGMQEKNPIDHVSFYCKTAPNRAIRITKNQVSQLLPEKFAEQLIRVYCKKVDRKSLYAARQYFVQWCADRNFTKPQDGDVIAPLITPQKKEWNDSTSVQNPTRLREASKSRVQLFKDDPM

SAMHD1 HD domain R366H R366H, sequence (Q9Y3Z3 114-626 R366H): as the sequence (Q9Y3Z3 114-626 R366C) above, with C253H counted along it
SAMHD1 HD domain WT, sequence (Q9Y3Z3 114-626): as the sequence (Q9Y3Z3 114-626 R366C) above, with C253R counted along it

Row | Substance | Kd [1] | Kd (SAMHD1 HD domain WT) | Kd [2]
1 | 6FAM-ssDNA57 | 2.96 µM | 0.387 µM | 3.83 µM
2 | 6FAM-ssRNA40 | 2.48 µM | 0.885 µM | 2.25 µM
